Experimental data published in publication PMC7035355.

Target: FBW7 (UniProt Q969H0)
Assay: co-immunoprecipitation, immunoblot
Settings: reference: wild type Mcl-1; sites S159

binding against the reference: weaker
Substance: Mcl-1 (from UniProt Q07820) S159A
